Residue numbers refer to the chain shown, from its start. Numbers in names are those of the source. Where two headings read alike, the source gives them in different places. No end group written: not given here.
T1: AP2-μ2 (μ2 subunit of clathrin-adaptor protein 2, residues 158–435) (Rattus norvegicus, UniProt P84092)
T1 construct: recombinant AP2-μ2 protein (residues 158–435) expressed in E. coli; made in house; host or cells: Escherichia coli BL21(DE3) RIL
T1 sequence (P84092 158-435): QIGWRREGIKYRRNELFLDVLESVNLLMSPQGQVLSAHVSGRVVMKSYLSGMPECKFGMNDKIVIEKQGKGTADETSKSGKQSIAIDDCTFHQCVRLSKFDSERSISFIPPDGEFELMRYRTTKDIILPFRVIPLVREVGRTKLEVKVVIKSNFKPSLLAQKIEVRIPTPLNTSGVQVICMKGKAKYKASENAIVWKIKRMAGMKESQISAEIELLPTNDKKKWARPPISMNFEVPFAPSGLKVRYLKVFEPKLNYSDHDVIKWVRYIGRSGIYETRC

T2: μ2 subunit of clathrin-adaptor protein 2 (AP2-μ2), residues 158–435, wild type (rat, UniProt P84092 158-435)
T2 chain: T1 sequence (P84092 158-435)

T3: μ2 subunit of clathrin-adaptor protein 2 (AP2-μ2), residues 158–435, wild type (rat, UniProt P84092 158-435)
T3 construct: also called recombinant AP2-μ2; μ2 subunit of rat AP2; source: E. coli BL21(DE3) RIL, purified (Ni-NTA, SEC)
T3 sequence (looked up): T1 sequence (P84092 158-435)

T4: AP2-μ2 (residues 158–435) R402A∙K405A mutant (rat, UniProt P84092 158-435, R402A | K405A)
T4 construct: also called R402A∙K405A mutant recombinant AP2-μ2; source: E. coli, purified by the same protocol as the wild-type protein
T4 sequence: T1 sequence (P84092 158-435) with R245A, K248A

B1: HPV16 E7(22–32) wild-type 11-mer peptide (peptide)
peptide: LYCYEQLNDSS
notes: source: synthetic peptide, bought: Dandicure (Korea)
B2: HPV16 E7(22–39) wild-type 18-mer peptide (peptide)
peptide: LYCYEQLNDSSEEEDEID
notes: HPV16 E7 residues 22–39; source: synthetic peptide, bought: Dandicure (Korea)
B3: HPV16 E7(22–39; S31E∙S32E) 18-mer phosphomimetic peptide (peptide)
peptide: LYCYEQLNDEEEEEDEID
notes: HPV16 E7 residues 22–39 with S31E and S32E; source: synthetic peptide, bought: Dandicure (Korea)
B4: HPV16 E7(16–32; S31E∙S32E) 17-mer peptide (peptide)
peptide: QPETTDLYCYEQLNDEE
notes: as for B1
B5: HPV16 E7(22–32; S31E∙S32E) 11-mer phosphomimetic peptide (peptide)
peptide: LYCYEQLNDEE
notes: also called 11-mer phosphomimetic mutant HPV16 E7 peptide; source: synthetic peptide, bought: Dandicure (Korea)

Assays:
[1] = target: T1, AP2-μ2 (μ2 subunit of clathrin-adaptor protein 2, residues 158–435); assay: ITC binding of HPV E7-derived synthetic peptides to recombinant wild-type AP2-μ2; conditions: for binding to AP2-μ2 in ITC (result in words): peptide titrated into wild-type recombinant AP2-μ2
Method: A DNA fragment encoding residues 158–435 of the μ2 subunit of rat AP2 was cloned into a modified pET28a plasmid (Novagen, USA) to produce a recombinant protein tagged with (His)10−maltose-binding protein. The recombinant protein was expressed in Escherichia coli BL21(DE3) RIL cells (Novagen) grown in Luria-Bertani medium at 18°C for 16 h following induction with 0.5 mM isopropyl β-D-thiogalactopyranoside. Proteins were purified using Ni-NTA affinity chromatography (QIAGEN, Germany), followed by size-exclusion chromatography on a HiLoad 26/600 Superdex 200 prep grade column (Cytiva, USA). The (His)10−maltose-binding protein tag was cleaved by TEV protease and removed during subsequent purification steps. Final protein samples were equilibrated in a buffer containing 50 mM Tris-HCl (pH 7.5), 500 mM NaCl, and 3 mM β-mercaptoethanol. […] Crystals were obtained using the sitting-drop vapor diffusion method at 18°C by from a mixture of 1 μl protein solution (10 mg/ml) and 1 μl precipitant solution. […] X-ray diffraction data were collected at beamlines 5C and 7A of the Pohang Accelerator Laboratory (Korea) and processed using HKL2000 ([Otwinowski and Minor, 1997]). Molecular replacement was performed using Phaser ([McCoy et al., 2007]) with the structure of AP2-μ2 complexed with a PIP5KIγ-derived peptide (Protein Data Bank [PDB] code: 3H85) used as the search model ([Kahlfeldt et al., 2010]). Model building and refinement were performed using Coot ([Emsley and Cowtan, 2004]) and PHENIX ([Adams et al., 2010]), respectively.
Recombinant AP2-μ2 protein harboring R402A∙K405A mutations was prepared and purified using the same protocol as that used for the wild-type protein. […] All peptides were dialyzed against the same buffer used for AP2-μ2 purification. Isothermal titration calorimetry (ITC) was performed using recombinant AP2-μ2 proteins and synthetic peptides as previously described ([Jung et al., 2023]; [Lim et al., 2021]).
Fig. 2. ITC analysis of the effect of the Y-x-x-Φ motif on complex formation. Each peptide (0.2 mM) was titrated into 10 μM recombinant AP2-μ2 as indicated. KD and Ka values were deduced from curve fitting of the integrated heat per mole of added ligand. Mutated residues are highlighted in blue.
Fig. 3. ITC analysis of the effect of the acidic cluster region on complex formation. Each peptide was titrated into wild-type (A) or R402A∙K405A mutant (B) recombinant AP2-μ2 as indicated. KD and Ka values were obtained by curve-fitting of the integrated heat per mole of added ligand. Mutated residues are highlighted in blue. […] Negatively charged cluster residues are marked in red.

PIP5KIγ (Homo sapiens) = assay: ITC; conditions: cited from earlier work
[2] = target: integrin α4 (Homo sapiens); assay: ITC; conditions: cited from earlier work
[3] = target: T2, μ2 subunit of clathrin-adaptor protein …; assay: ITC
[4] = target: T3, μ2 subunit of clathrin-adaptor protein …; assay: ITC; peptide titrated into recombinant AP2-μ2; 50 mM Tris-HCl (pH 7.5), 500 mM NaCl, 3 mM β-mercaptoethanol; in Fig. 2 peptide 0.2 mM into 10 μM AP2-μ2; conditions: both partners purified
[5] = target: T2, μ2 subunit of clathrin-adaptor protein …; assay: ITC
[6] = target: T4, AP2-μ2 (residues 158–435) R402A∙K405A …; assay: ITC; peptide titrated into recombinant AP2-μ2; 50 mM Tris-HCl (pH 7.5), 500 mM NaCl, 3 mM β-mercaptoethanol; in Fig. 2 peptide 0.2 mM into 10 μM AP2-μ2; conditions: both partners purified

Molecule | binding to AP2-μ2 in ITC (result in words) [1] | Kd [4] [µM] | also measured
Y25H: 11-mer HPV16 E7 residues 22–32 synthetic peptide with Y25H mutation (LYCHEQLNDSS) | severely impaired |  | 
AP2-μ2 (from UniProt Q96CW1) |  |  | Kd (PIP5KIγ (Homo sapiens)): 6 µM; Kd [2]: 72 µM
residues 25–42 of HPV18 E7: 18-mer peptide lacking the Y-x-x-Φ motif, residues 25–42 of HPV18 E7 (LLCHEQLSDSEEENDEID; UniProt P06788 25-42, looked up, fragment) | did not bind |  | 
LHCYEELSEEETEEEPRF [HPV15 E7(24–41)] |  |  | Kd [1]: 13.3 µM
L28A: 11-mer HPV16 E7 residues 22–32 synthetic peptide with L28A mutation (LYCYEQANDSS) | severely impaired |  | 
Y25N: 11-mer HPV16 E7 residues 22–32 synthetic peptide with Y25N mutation (LYCNEQLNDSS) | severely impaired |  | 
B1 |  | 5.88 | Ka [3]: 170000 M⁻¹
B2 |  | 3.34 | Ka [5]: 299000 M⁻¹
B3 |  | 2.34 | 
B4 |  | 1.64 | Kd [6]: 8.26 µM
B5 |  | 1.54 | 

— PMC13577001, “Crystal structures of the μ2 subunit of clathrin-adaptor protein 2 in complex with peptides derived from human papillomavirus 16 E7” (The Journal of Microbiology, 2025)
